From patent US20240218057A1

Tests used:
Assay in all cases: cell-based or functional assay
[1] = target: SARS-COV-2 spike protein A475V on pseudotyped virus (SARS-CoV-2) (UniProt P0DTC2)
[2] = target: SARS-COV-2 spike protein N501Y on pseudotyped virus (SARS-CoV-2) (UniProt P0DTC2)
[3] = target: SARS-COV-2 spike protein K417N on pseudotyped virus (SARS-CoV-2) (UniProt P0DTC2)
[4] = target: SARS-COV-2 spike protein N440K on pseudotyped virus (SARS-CoV-2) (UniProt P0DTC2)
[5] = target: SARS-COV-2 spike protein R683G on pseudotyped virus (SARS-CoV-2) (UniProt P0DTC2)
[6] = target: SARS-COV-2 spike protein R346S on pseudotyped virus (SARS-CoV-2) (UniProt P0DTC2)
[7] = target: SARS-COV-2 spike protein E484K (R683G) on pseudotyped virus (SARS-CoV-2) (UniProt P0DTC2)
[8] = target: SARS-CoV-2 spike protein R683G (pseudovirus) (SARS-CoV-2) (UniProt P0DTC2)
[9] = target: SARS-CoV-2 spike protein N440K (pseudovirus) (SARS-CoV-2) (UniProt P0DTC2)
[10] = target: SARS-CoV-2 spike protein R346S (pseudovirus) (SARS-CoV-2) (UniProt P0DTC2)
[11] = target: SARS-CoV-2 spike protein K417N/E484K/N501Y (R683G) (pseudovirus) (SARS-CoV-2) (UniProt P0DTC2)
[12] = target: SARS-CoV-2 spike protein A475V (pseudovirus) (SARS-CoV-2) (UniProt P0DTC2)
[13] = target: SARS-CoV-2 spike protein E484K (R683G) (pseudovirus) (SARS-CoV-2) (UniProt P0DTC2)
[14] = target: SARS-CoV-2 spike protein N501Y (pseudovirus) (SARS-CoV-2) (UniProt P0DTC2)
[15] = target: SARS-CoV-2 spike protein Q493R (pseudovirus) (SARS-CoV-2) (UniProt P0DTC2)
[16] = target: SARS-CoV-2 spike protein K417N (pseudovirus) (SARS-CoV-2) (UniProt P0DTC2)

## C121 (antibody)
[1]
  neutralization IC50: 0.00253 µg/mL
  neutralization IC90: 0.0183 µg/mL
[2]
  neutralization IC50: 0.00375 µg/mL
  neutralization IC90: 0.0189 µg/mL
[3]
  neutralization IC50: 0.0031 µg/mL
  neutralization IC90: 0.0163 µg/mL
[4]
  neutralization IC50: 0.0035 µg/mL
  neutralization IC90: 0.0182 µg/mL
[5]
  neutralization IC50: 0.00167 µg/mL
  neutralization IC90: 0.0108 µg/mL
[6]
  neutralization IC50: 0.00363 µg/mL
  neutralization IC90: 0.0156 µg/mL
[7]
  neutralization IC50: > 1 µg/mL
  neutralization IC90: > 1 µg/mL

## C135 (antibody)
[1]
  neutralization IC50: 0.00461 µg/mL
  neutralization IC90: 0.0272 µg/mL
[2]
  neutralization IC50: 0.0129 µg/mL
  neutralization IC90: 0.141 µg/mL
[3]
  neutralization IC50: 0.00348 µg/mL
  neutralization IC90: 0.0147 µg/mL
[4]
  neutralization IC50: > 1 µg/mL
  neutralization IC90: > 1 µg/mL
[5]
  neutralization IC50: 0.00271 µg/mL
  neutralization IC90: 0.0228 µg/mL
[6]
  neutralization IC50: > 1 µg/mL
  neutralization IC90: > 1 µg/mL
[7]
  neutralization IC50: 0.00199 µg/mL
  neutralization IC90: 0.02 µg/mL

## C144 (antibody)
[8]
  IC50 neutralization: 0.0012 µg/mL
  IC90 neutralization: 0.0067 µg/mL
[1]
  neutralization IC50: 0.00319 µg/mL
  neutralization IC90: 0.0162 µg/mL
[2]
  neutralization IC50: 0.00305 µg/mL
  neutralization IC90: 0.0189 µg/mL
[9]
  IC50 neutralization: 0.0024 µg/mL
  IC90 neutralization: 0.0135 µg/mL
[10]
  IC50 neutralization: 0.0034 µg/mL
  IC90 neutralization: 0.0167 µg/mL
[11]
  IC50 neutralization: > 1 µg/mL
  IC90 neutralization: > 1 µg/mL
[12]
  IC50 neutralization: 0.0032 µg/mL
  IC90 neutralization: 0.0162 µg/mL
[3]
  neutralization IC50: 0.00184 µg/mL
  neutralization IC90: 0.0115 µg/mL
[4]
  neutralization IC50: 0.0024 µg/mL
  neutralization IC90: 0.0135 µg/mL
[13]
  IC50 neutralization: > 1 µg/mL
  IC90 neutralization: > 1 µg/mL
[5]
  neutralization IC50: 0.00123 µg/mL
  neutralization IC90: 0.00666 µg/mL
[6]
  neutralization IC50: 0.00341 µg/mL
  neutralization IC90: 0.0167 µg/mL
[14]
  IC50 neutralization: 0.003 µg/mL
  IC90 neutralization: 0.0189 µg/mL
[7]
  neutralization IC50: > 1 µg/mL
  neutralization IC90: > 1 µg/mL
[15]
  IC50 neutralization: > 1 µg/mL
  IC90 neutralization: > 1 µg/mL
[16]
  IC50 neutralization: 0.0018 µg/mL
  IC90 neutralization: 0.0115 µg/mL
